Sequences and labels used below:
B1: scFv-19 (scFv)
scFv: QVQLVQSGGGLVQPGGSLRLSCAASGFTFSSYAMHWVRQAPGKGLEWVSVISPPGHNTYYADSVKGRFTISRDNSKNTLYLQMNSLRAEDTAVYYCARASVGATGPFDIWGQGTLVTVSSASTGGGGSGGGGSGGGGSGGGGSSSELTQPPSVSVAPGQTVTITCQGDSLRSYYASWYQQKPGTAPKLLIYGENNRPSGVPDRFSGSSSGTSASLTITGAQAEDEADYYCNSRDSSGTHLTVFGGGTKLTVLG
B2: scFv-1 (scFv)
scFv: QVQLVQSGGGLVQPGGSLRLSCAASGFTFSSYAMHWVRQAPGKGLEWVSVISPAGNNTYYADSVKGRFTISRDNSKNTLYLQMNSLRAEDTAVYYCARASVGATGPFDIWGQGTLVTVSSASTGGGGSGGGGSGGGGSGGGGSSSELTQPPSVSVAPGQTVTITCQGDSLRSYYASWYQQKPGTAPKLLIYGENNRPSGVPDRFSGSSSGTSASLTITGAQAEDEADYYCNSRDSSGTHLTVFGGGTKLTVLG
B3: scFv-8 (scFv)
scFv: QVQLVQSGGGLVQPGGSLRLSCAASGFTFSSYAMHWVRQAPGKGLEWVTVISPSGHNTYYADSVKGRFTISRDNSKNTLYLQMNSLRAEDTAVYYCARASVGATGPFDIWGQGTLVTVSSASTGGGGSGGGGSGGGGSGGGGSSSELTQPPSVSVAPGQTVTITCQGDSLRSYYASWYQQKPGTAPKLLIYGENNRPSGVPDRFSGSSSGTSASLTITGAQAEDEADYYCNSRDSSGTHLTVFGGGTKLTVLG
B4: scFv-4 (scFv)
scFv: QVQLVQSGGGLVQPGGSLRLSCAASGFTFSSYAMHWVRQAPGKGLEWVTVISPHGRNKYYADSVKGRFTISRDNSKNTLYLQMNSLRAEDTAVYYCARASVGATGPFDIWGQGTLVTVSSASTGGGGSGGGGSGGGGSGGGGSSSELTQPPSVSVAPGQTVTITCQGDSLRSYYASWYQQKPGTAPKLLIYGENNRPSGVPDRFSGSSSGTSASLTITGAQAEDEADYYCNSRDSSGTHLTVFGGGTKLTVLG
B5: scFv-14 (scFv)
scFv: QVQLVQSGGGLVQPGGSLRLSCAASGFTFSSYAMHWVRQAPGKGLEWVTVISPAGPNKYYADSVKGRFTISRDNSKNTLYLQMNSLRAEDTAVYYCARASVGATGPFDIWGQGTLVTVSSASTGGGGSGGGGSGGGGSGGGGSSSELTQPPSVSVAPGQTVTITCQGDSLRSYYASWYQQKPGTAPKLLIYGENNRPSGVPDRFSGSSSGTSASLTITGAQAEDEADYYCNSRDSSGTHLTVFGGGTKLTVLG
B6: scFv-13 (scFv)
scFv: QVQLVQSGGGLVQPGGSLRLSCAASGFTFSSYAMHWVRQAPGKGLEWVTVISPTGANTYYADSVKGRFTISRDNSKNTLYLQMNSLRAEDTAVYYCARASVGATGPFDIWGQGTLVTVSSASTGGGGSGGGGSGGGGSGGGGSSSELTQPPSVSVAPGQTVTITCQGDSLRSYYASWYQQKPGTAPKLLIYGENNRPSGVPDRFSGSSSGTSASLTITGAQAEDEADYYCNSRDSSGTHLTVFGGGTKLTVLG
B7: scFv-17 (scFv)
scFv: QVQLVQSGGGLVQPGGSLRLSCAASGFTFSSYAMHWVRQAPGKGLEWVTVISPPGSNKYYADSVKGRFTISRDNSKNTLYLQMNSLRAEDTAVYYCARASVGATGPFDIWGQGTLVTVSSASTGGGGSGGGGSGGGGSGGGGSSSELTQPPSVSVAPGQTVTITCQGDSLRSYYASWYQQKPGTAPKLLIYGENNRPSGVPDRFSGSSSGTSASLTITGAQAEDEADYYCNSRDSSGTHLTVFGGGTKLTVLG
B8: scFv-7 (scFv)
scFv: QVQLVQSGGGLVQPGGSLRLSCAASGFTFSSYAMHWVRQAPGKGLEWVSVISPAGPNTYYADSVKGRFTISRDNSKNTLYLQMNSLRAEDTAVYYCARASVGATGPFDIWGQGTLVTVSSASTGGGGSGGGGSGGGGSGGGGSSSELTQPPSVSVAPGQTVTITCQGDSLRSYYASWYQQKPGTAPKLLIYGENNRPSGVPDRFSGSSSGTSASLTITGAQAEDEADYYCNSRDSSGTHLTVFGGGTKLTVLG
B9: scFv-2 (scFv)
scFv: QVQLVQSGGGLVQPGGSLRLSCAASGFTFSSYAMHWVRQAPGKGLEWVSVISPAGRNKYYADSVKGRFTISRDNSKNTLYLQMNSLRAEDTAVYYCARASVGATGPFDIWGQGTLVTVSSASTGGGGSGGGGSGGGGSGGGGSSSELTQPPSVSVAPGQTVTITCQGDSLRSYYASWYQQKPGTAPKLLIYGENNRPSGVPDRFSGSSSGTSASLTITGAQAEDEADYYCNSRDSSGTHLTVFGGGTKLTVLG
B10: scFv-10 (scFv)
scFv: QVQLVQSGGGLVQPGGSLRLSCAASGFTFSSYAMHWVRQAPGKGLEWVSAISPPGHNTYYADSVKGRFTISRDNSKNTLYLQMNSLRAEDTAVYYCARASVGATGPFDIWGQGTLVTVSSASTGGGGSGGGGSGGGGSGGGGSSSELTQPPSVSVAPGQTVTITCQGDSLRSYYASWYQQKPGTAPKLLIYGENNRPSGVPDRFSGSSSGTSASLTITGAQAEDEADYYCNSRDSSGTHLTVFGGGTKLTVLG
B11: scFv-9 (scFv)
scFv: QVQLVQSGGGLVQPGGSLRLSCAASGFTFSSYAMHWVRQAPGKGLEWVTVISPNGHNTYYADSVKGRFTISRDNSKNTLYLQMNSLRAEDTAVYYCARASVGATGPFDIWGQGTLVTVSSASTGGGGSGGGGSGGGGSGGGGSSSELTQPPSVSVAPGQTVTITCQGDSLRSYYASWYQQKPGTAPKLLIYGENNRPSGVPDRFSGSSSGTSASLTITGAQAEDEADYYCNSRDSSGTHLTVFGGGTKLTVLG
B12: scFv-5 (scFv)
scFv: QVQLVQSGGGLVQPGGSLRLSCAASGFTFSSYAMHWVRQAPGKGLEWVSVISRRGDNKYYADSVKGRFTISRDNSKNTLYLQMNSLRAEDTAVYYCARASVGATGPFDIWGQGTLVTVSSASTGGGGSGGGGSGGGGSGGGGSSSELTQPPSVSVAPGQTVTITCQGDSLRSYYASWYQQKPGTAPKLLIYGENNRPSGVPDRFSGSSSGTSASLTITGAQAEDEADYYCNSRDSSGTHLTVFGGGTKLTVLG
B13: scFv-11 (scFv)
scFv: QVQLVQSGGGLVQPGGSLRLSCAASGFTFSSYAMHWVRQAPGKGLEWVAVISHHGSNTYYADSVKGRFTISRDNSKNTLYLQMNSLRAEDTAVYYCARASVGATGPFDIWGQGTLVTVSSASTGGGGSGGGGSGGGGSGGGGSSSELTQPPSVSVAPGQTVTITCQGDSLRSYYASWYQQKPGTAPKLLIYGENNRPSGVPDRFSGSSSGTSASLTITGAQAEDEADYYCNSRDSSGTHLTVFGGGTKLTVLG
B14: scFv-16 (scFv)
scFv: QVQLVQSGGGLVQPGGSLRLSCAASGFTFSSYAMHWVRQAPGKGLEWVSVISNNGHNTYYADSVKGRFTISRDNSKNTLYLQMNSLRAEDTAVYYCARASVGATGPFDIWGQGTLVTVSSASTGGGGSGGGGSGGGGSGGGGSSSELTQPPSVSVAPGQTVTITCQGDSLRSYYASWYQQKPGTAPKLLIYGENNRPSGVPDRFSGSSSGTSASLTITGAQAEDEADYYCNSRDSSGTHLTVFGGGTKLTVLG
B15: scFv-6 (scFv)
scFv: QVQLVQSGGGLVQPGGSLRLSCAASGFTFSSYAMHWVRQAPGKGLEWVSVISNNGHNKYYADSVKGRFTISRDNSKNTLYLQMNSLRAEDTAVYYCARASVGATGPFDIWGQGTLVTVSSASTGGGGSGGGGSGGGGSGGGGSSSELTQPPSVSVAPGQTVTITCQGDSLRSYYASWYQQKPGTAPKLLIYGENNRPSGVPDRFSGSSSGTSASLTITGAQAEDEADYYCNSRDSSGTHLTVFGGGTKLTVLG
B16: scFv-15 (scFv)
scFv: QVQLVQSGGGLVQPGGSLRLSCAASGFTFSSYAMHWVRQAPGKGLEWVSVISPHGSNKYYADSVKGRFTISRDNSKNTLYLQMNSLRAEDTAVYYCARASVGATGPFDIWGQGTLVTVSSASTGGGGSGGGGSGGGGSGGGGSSSELTQPPSVSVAPGQTVTITCQGDSLRSYYASWYQQKPGTAPKLLIYGENNRPSGVPDRFSGSSSGTSASLTITGAQAEDEADYYCNSRDSSGTHLTVFGGGTKLTVLG

T1 sequence (P29317 24-976): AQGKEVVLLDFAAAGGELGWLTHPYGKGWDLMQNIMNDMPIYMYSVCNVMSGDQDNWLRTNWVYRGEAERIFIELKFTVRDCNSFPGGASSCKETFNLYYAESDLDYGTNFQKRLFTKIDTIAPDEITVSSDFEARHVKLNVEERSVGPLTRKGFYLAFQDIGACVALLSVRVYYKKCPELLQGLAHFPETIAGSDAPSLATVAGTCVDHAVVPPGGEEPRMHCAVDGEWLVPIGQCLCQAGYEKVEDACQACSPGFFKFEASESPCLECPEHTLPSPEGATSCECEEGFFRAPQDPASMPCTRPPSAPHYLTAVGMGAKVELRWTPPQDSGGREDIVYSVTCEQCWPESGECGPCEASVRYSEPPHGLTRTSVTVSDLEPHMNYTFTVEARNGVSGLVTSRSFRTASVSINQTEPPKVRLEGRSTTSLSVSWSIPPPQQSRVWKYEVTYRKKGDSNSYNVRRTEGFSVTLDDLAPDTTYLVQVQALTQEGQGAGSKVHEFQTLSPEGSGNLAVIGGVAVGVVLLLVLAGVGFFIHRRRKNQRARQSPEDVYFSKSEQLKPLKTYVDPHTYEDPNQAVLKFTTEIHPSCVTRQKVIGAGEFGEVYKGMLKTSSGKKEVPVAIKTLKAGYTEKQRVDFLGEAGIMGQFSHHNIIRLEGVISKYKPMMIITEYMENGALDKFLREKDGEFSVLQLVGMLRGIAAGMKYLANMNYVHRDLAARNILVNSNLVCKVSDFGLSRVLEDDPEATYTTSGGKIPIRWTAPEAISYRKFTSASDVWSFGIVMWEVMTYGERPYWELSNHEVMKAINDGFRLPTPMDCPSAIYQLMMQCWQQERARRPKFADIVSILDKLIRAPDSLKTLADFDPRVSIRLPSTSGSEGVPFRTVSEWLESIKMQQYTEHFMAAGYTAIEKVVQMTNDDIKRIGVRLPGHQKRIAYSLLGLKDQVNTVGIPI

This test concerns the target T1, human EphA2 on OVCAR-3 and U-251 cells (human, UniProt P29317 24-976).
T1 construct: whole, on cells; also called EphA2 receptors
In words: CLIA: scFv-decorated fluorescent NTA(Ni) liposomes on EphA2-expressing cells, FACS. As to the method:
To test the anti-EphA2 activity of these variant scFvs, the binding and internalization of liposomes externally decorated with these Abs was assayed on cell lines expressing EphA2. A rapid high-throughput Chelated Ligand-induced Internalization Assay (CLIA) (Nielsen et al., BMC immunology, 2006, 7:24) was used to screen anti-EphA2-scFv-targeted liposomes for binding and internalization assessment. Two cell lines that express high levels of EphA2 receptors, OVCAR-3 and U-251, were tested, as well as a murine EphA2-expressing mouse cell line, CT-26 (to test whether cross-reactivity to murine EphA2 was retained by the engineered scFvs). Via nickel-binding by each scFv's c-terminal His6 tag, the scFvs were bound to fluorescently labeled liposomes comprising an NTA(Ni) conjugated lipid (Dil5-NTA liposomes).
Dil5-NTA liposomes were prepared as follows. The NTA conjugated lipid, DOD-Tri-NTA, was synthesized as described in Huang et al., Bioconjugate chemistry, 2006, vol. 17, p. 1592-1600. Hydrogenated soy phosphatidylcholine (HSPC), cholesterol, methoxy-PEG(2000)-distearoylphosphatidylethanolamine (PEG-DSPE), DOD-tri-NTA, and a fluorescent lipid dye, Dil5, (ThermoFisher® Invitrogen® Molecular Probes™, cat. # D12370) were combined in a chloroform solution at the molar ratio of 100:66.7:5:0.5:0.3 respectively and the solution evaporated under vacuum to dryness forming a lipid film. The film was hydrated in HEPES-buffered physiological saline (“HBS-6.5”—5 mM HEPES, 144 mM NaCl pH 6.5) at 68° C., the resulting lipid suspension was subjected to several cycles of freezing (dry ice-acetone) and thawing (68C), and extruded through two stacked polycarbonate membranes (Whatman Nuclepore, USA) with the pore size of 200 nm (6 times) and 100 nm (10 times) using Lipex™ thermobarrel extruder (Northern Lipids, Canada). This protocol typically produces unilamellar vesicles with the z-average size of 100-110 nm and polydispersity index less than 0.1. The extruded liposomes were chilled to room temperature, purified by gel-chromatography on a Sephadex® G-75 (GE Healthcare) column eluted with HBS-6.5, and then sterilized by passage through a 0.2-μm filter. The concentration of liposomal phospholipid was then determined after acid digestion using spectrophotometric phosphomolybdate method.
Regarding B1, the binding result is on record as “binds”.

With B2, the binding result is listed as “binds”.

As for B3, the binding result is recorded as “binds”.

Turning to B4, the binding result is listed as “binds”.

As to B5, the binding result was “binds”.

On to B6, for which the binding result is listed as “binds”.

In the case of B7, the binding result was “binds”.

B8: the binding result is recorded as “binds”.

For the molecule B9, the binding result is recorded as “binds”.

On to B10, for which the binding result is “binds”.

For B11, the binding result is recorded as “binds”.

For B12, the binding result is “binds”.

Consider B13, for which the binding result is on record as “binds”.

B14: the binding result is listed as “binds”.

For the molecule B15, the binding result is listed as “binds”.

Take B16: the binding result is “binds”.

The values are drawn from patent publication US20170267768A1 (University of California, published 2017).
